First the molecules themselves.
B1: Twister Ribozyme (parent)
chain: AACACUGCCAAUGCCGGUCCCAAGCCCGGAUAAAAGUGGAGGGGGCGG

Data on 167 variants can be found in the RNAGym collection of RNA variant scans (doi:10.7554/elife.80360).

The variants in the data set derive from B1. Briefly: self-cleavage, relative activity (ratio to wild type); higher = more cleavage; co-transcriptional.
On to U18A G39C, for which the self-cleavage is 0.102.
For the variant U18A G39U, the self-cleavage amounted to 0.144.
Turning to U18G G43C, the self-cleavage was determined as 0.116.
For U18G G43A, the self-cleavage worked out at 0.0708.
For U18A U37C, the self-cleavage was 0.0568.
The same measure for U18G A33U: 0.0323; for U18A G29C: 0.0874; for U18A G29U: 0.389.
For the variant U18G A22G, the self-cleavage worked out at 0.0592.
With U18G A22U, the self-cleavage was found to be 0.0775.
As for U18C C20A, the self-cleavage came to 0.0953.
U18C C20G: the self-cleavage is 0.102.
In the case of U18G G44C, the self-cleavage was found to be 0.0756.
Turning to U18G G44U, the self-cleavage came to 0.0806.
Consider C19A G39A, for which the self-cleavage was found to be 0.136.
For C19A G39C, the self-cleavage was 0.126.
Next, C19A A32C: 0.201; C19A A32U: 0.189.
Regarding C19A A40U, the self-cleavage was determined as 0.16.
Take C19A A40C: the self-cleavage worked out at 0.148.
The same measure for C19A G38U: 0.12.
Turning to C19A G38A, the self-cleavage was found to be 0.132.
On to U18C G38C, for which the self-cleavage came to 0.523.
On to U18C G38A, for which the self-cleavage was determined as 0.371.
The same measure for U18C G24C: 0.0613; for U18C G24U: 0.079; for U18G C26G: 0.0643.
For U18G G48U, the self-cleavage was 0.117.
Next, U18C G29A: 0.275.
Consider U18A A34U, for which the self-cleavage was determined as 0.0942.
For the variant U18A A34G, the self-cleavage worked out at 0.171.
As to C19A G29A, the self-cleavage came to 0.27.
Next, U18G U31A: 0.0937; U18G U31G: 0.102.
Consider U18G U31C, for which the self-cleavage stood at 0.106.
For the variant C19A C25G, the self-cleavage turned out to be 0.0863.
Take C19A C25A: the self-cleavage is 0.0869.
With U18C G36C, the self-cleavage was 0.1.
For the variant U18G A40C, the self-cleavage worked out at 0.0607.
With U18A C25U, the self-cleavage was determined as 0.0861.
C19A A30U: the self-cleavage was found to be 0.349.
For C19A A30G, the self-cleavage came out at 0.444.
In the case of U18A C20A, the self-cleavage is 0.0667.
For the variant U18G G47A, the self-cleavage was 0.0493.
Take U18G G47U: the self-cleavage is 0.0478.
As to U18C G42C, the self-cleavage was found to be 0.114.
Consider C19A G41C, for which the self-cleavage stood at 0.114.
Consider C19A G41U, for which the self-cleavage is 0.109.
In the case of U18G G41A, the self-cleavage amounted to 0.0588.
With U18G G41U, the self-cleavage was determined as 0.0362.
The same measure for U18G A34U: 0.0388; for U18G A34C: 0.0636; for U18G G39C: 0.0419.
The same measure for U18A G28U: 0.314.
Next, U18A G28C: 0.185.
As for U18A G28A, the self-cleavage worked out at 0.2.
The same measure for U18C A23G: 0.157; for U18C A23U: 0.242.
On to U18C A23C, for which the self-cleavage turned out to be 0.506.
Next, U18A A23G: 0.0959.
Turning to U18C C25A, the self-cleavage worked out at 0.105.
Next, C19A A35G: 0.095.
In the case of U18C G43U, the self-cleavage came out at 0.111.
Turning to U18C G43A, the self-cleavage is 0.188.
As to U18C G43C, the self-cleavage turned out to be 0.121.
Take U18G C20G: the self-cleavage is 0.069.
On to U18G C20A, for which the self-cleavage came out at 0.057.
For U18C C27G, the self-cleavage came out at 0.0754.
Take U18C A22G: the self-cleavage is 0.0724.
As to U18G A32G, the self-cleavage came out at 0.0643.
Regarding U18C C46A, the self-cleavage was 0.463.
The same measure for U18C C46G: 0.477; for U18C C46U: 0.599.
For U18A G44C, the self-cleavage was 0.448.
As to U18A G44A, the self-cleavage was 0.631.
The same measure for C19A A23C: 0.126.
For the variant C19A A34U, the self-cleavage came to 0.116.
U18A A30U: the self-cleavage is 0.586.
On to U18A A30G, for which the self-cleavage is 0.606.
Regarding U18A A35C, the self-cleavage was 0.445.
U18A A35U: the self-cleavage is 0.624.
Regarding U18A A35G, the self-cleavage came out at 0.123.
As for U18A C27A, the self-cleavage amounted to 0.114.
The same measure for U18A C27G: 0.0805; for U18C G45A: 0.48.
Next, U18C G45C: 0.132; U18G A30U: 0.0738; U18C A33U: 0.542.
As for U18C A33G, the self-cleavage was found to be 0.503.
In the case of U18A G45U, the self-cleavage was 0.272.
Turning to U18C G28U, the self-cleavage came to 0.156.
Turning to U18G G24A, the self-cleavage stood at 0.0714.
The same measure for U18G G24C: 0.117.
The same measure for C19A C26U: 0.0877.
U18C C19A: the self-cleavage was 0.0644.
G17U U37C: the self-cleavage was found to be 0.085.
Consider U18G A35C, for which the self-cleavage was determined as 0.0813.
For U18C U37A, the self-cleavage was determined as 0.197.
In the case of U18C A35U, the self-cleavage amounted to 0.665.
Next, C19A A22C: 0.127; C19A A22U: 0.11; U18C C21G: 0.0463.
Next, U18G C25U: 0.085.
Turning to U18G C25G, the self-cleavage is 0.0608.
As to U18G C25A, the self-cleavage came out at 0.138.
As to U18C A30C, the self-cleavage worked out at 0.0938.
The same measure for U18C A30G: 0.713; for U18C G39U: 0.104; for U18A U31G: 0.644.
Turning to U18A U31C, the self-cleavage amounted to 0.568.
As to G17U U31C, the self-cleavage came out at 0.495.
Take U18C G44A: the self-cleavage was determined as 0.714.
On to U18A C19A, for which the self-cleavage was 0.0671.
In the case of U18C G48A, the self-cleavage was 0.368.
For the variant U18C G48U, the self-cleavage came out at 0.496.
U18C G48C: the self-cleavage is 0.562.
On to U18G G29C, for which the self-cleavage was determined as 0.0613.
As to U18A A33C, the self-cleavage stood at 0.247.
Next, U18A A22U: 0.17; U18C U31A: 0.54; U18C U31G: 0.477.
Next, U18A G41A: 0.101; C19A A33C: 0.0946.
The same measure for C19A A33U: 0.148.
With U18C A32G, the self-cleavage stood at 0.664.
As to U18C A32C, the self-cleavage came to 0.486.
Turning to U18C C26U, the self-cleavage was determined as 0.0772.
Regarding U18C C26G, the self-cleavage was determined as 0.0519.
As to U18G G28U, the self-cleavage stood at 0.089.
Turning to G17U U18C, the self-cleavage came to 0.126.
U18G C21A: the self-cleavage amounted to 0.133.
In the case of U18G C21G, the self-cleavage was 0.0716.
As for U18A G48U, the self-cleavage is 0.419.
With U18A G48C, the self-cleavage was found to be 0.395.
As for U18G C19U, the self-cleavage stood at 0.105.
In the case of C19A G36A, the self-cleavage was determined as 0.102.
With C19A C46A, the self-cleavage was determined as 0.197.
Regarding C19A G28U, the self-cleavage was 0.179.
Consider U18A C26G, for which the self-cleavage came to 0.124.
The same measure for U18A C46G: 0.475; for U18A C46A: 0.252.
Next, U18A C46U: 0.617; U18A A32G: 0.407; U18A A32C: 0.53.
For the variant U18A A32U, the self-cleavage worked out at 0.632.
Next, U18A A40G: 0.0784; U18G G36C: 0.0571; U18G G36A: 0.0894.
For U18G G38U, the self-cleavage was 0.0721.
Next, U18G G38C: 0.102; U18A G42U: 0.161.
The same measure for C19A C27A: 0.0712.
For the variant C19A C27G, the self-cleavage stood at 0.073.
The same measure for C19A C21U: 0.0833; for C19A G24A: 0.0849.
In the case of C19A G24U, the self-cleavage turned out to be 0.0798.
For U18A C21G, the self-cleavage was found to be 0.395.
Turning to U18A C21A, the self-cleavage came out at 0.084.
In the case of U18G C46A, the self-cleavage was 0.0573.
Regarding U18A G38A, the self-cleavage is 0.229.
In the case of U18A G38C, the self-cleavage was 0.448.
As to U18A G47A, the self-cleavage was determined as 0.201.
U18A G47C: the self-cleavage is 0.164.
As for U18G A23U, the self-cleavage came to 0.0485.
For U18G U37C, the self-cleavage stood at 0.0884.
The same measure for U18C G41A: 0.137.
As for U18A G43A, the self-cleavage was 0.147.
